Laboratory results as given in PMC10896300.

Target: Recombinant 6×His-tagged CrMCA-II (Chlamydomonas reinhardtii)
Assay: SEC; purified rCrMCA-II in buffer without DTT and Ca2+; with 1 mM DTT in the SEC buffer the dimer-to-monomer ratio decreased

Recombinant 6×His-tagged CrMCA-II (enzyme)
stoichiometry N: 2
